Three molecules from PMC4573519 (PLoS ONE, 2015) can be followed below.

The target of assay [1] is T1, Asialofetuin (fetuin lacking sialic acid), biotinylated (bovine, UniProt P12763 19-359).
T1 construct: source: bought: Sigma-Aldrich
T1 sequence: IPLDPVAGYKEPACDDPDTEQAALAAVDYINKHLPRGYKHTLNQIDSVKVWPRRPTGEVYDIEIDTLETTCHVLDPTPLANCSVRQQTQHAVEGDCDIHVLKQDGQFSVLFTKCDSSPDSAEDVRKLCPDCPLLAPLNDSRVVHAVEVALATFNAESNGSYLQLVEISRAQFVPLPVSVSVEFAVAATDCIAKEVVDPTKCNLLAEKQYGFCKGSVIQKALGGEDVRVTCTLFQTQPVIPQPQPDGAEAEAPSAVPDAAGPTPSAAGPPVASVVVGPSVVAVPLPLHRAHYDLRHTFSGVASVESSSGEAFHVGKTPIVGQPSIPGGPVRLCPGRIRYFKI
Put plainly: BLI. As to conditions: both partners purified.

Assay [2] addresses T2, Fetuin (bovine serum glycoprotein), biotinylated (bovine, UniProt P12763 19-359).
T2 construct: source: bought: Sigma-Aldrich
T2 sequence: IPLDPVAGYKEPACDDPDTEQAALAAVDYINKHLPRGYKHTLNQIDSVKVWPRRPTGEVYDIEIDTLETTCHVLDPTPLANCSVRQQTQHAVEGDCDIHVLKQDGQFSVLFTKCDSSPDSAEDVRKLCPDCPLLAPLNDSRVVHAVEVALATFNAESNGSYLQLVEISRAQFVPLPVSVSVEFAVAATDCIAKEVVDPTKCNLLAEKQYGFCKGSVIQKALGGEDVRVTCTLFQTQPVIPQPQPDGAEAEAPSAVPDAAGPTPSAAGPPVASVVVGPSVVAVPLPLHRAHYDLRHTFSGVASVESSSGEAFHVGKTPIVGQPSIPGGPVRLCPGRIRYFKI
The assay can be described thus: BLI. The note with it: both partners purified.

B1: S2(PtxB1)S4his recombinant dimer of pertussis toxin subunits S2 (PtxB1 form) and S4 (complex)
chain 1: STPGIVIPPQEQITQHGGPYGRCANKTRALTVAELRGSGDLQEYLRHVTRGWSIFALYDGTYLGGEYGGVIKDGTPGGAFDLKTTFCIMTTRNTGQPATDHYYSNVTATRLLSSTNSRLCAVFVRSGQPVIGACTSPYDGKYWSMYSRLRKMLYLIYVAGISVRVHVSKEEQYYDYEDATFETYALTGISICNPGSSLC
chain 2: DVPYVLVKTNMVVTSVAMKPYEVTPTRMLVCGIAAKLGAAASSPDAHVPFCFGKDLKRPGSSPMEVMLRAVFMQQRPLRMFLGPKQLTFEGKPALELIRMVECSGKQDCP
For the molecule B1, the binding result in assay [1] and in assay [2] was “binds” each time.

B2: S3S4his recombinant dimer of pertussis toxin subunits S3 and S4 (complex)
chain 1: VAPGIVIPPKALFTQQGGAYGRCPNGTRALTVAELRGNAELQTYLRQITPGWSIYGLYDGTYLGQAYGGIIKDAPPGAGFIYRETFCITTIYKTGQPAADHYYSKVTATRLLASTNSRLCAVFVRDGQSVIGACASPYEGRYRDMYDALRRLLYMIYMSGLAVRVHVSKEEQYYDYEDATFQTYALTGISLCNPAASIC
chain 2: DVPYVLVKTNMVVTSVAMKPYEVTPTRMLVCGIAAKLGAAASSPDAHVPFCFGKDLKRPGSSPMEVMLRAVFMQQRPLRMFLGPKQLTFEGKPALELIRMVECSGKQDCP
On to B2, for which the binding result in assay [1] and in assay [2] was “binds” each time.

B3: S2(PtxB2)S4his recombinant dimer of pertussis toxin subunits S2 (PtxB2 form) and S4 (complex)
chain 1: STPGIVIPPQEQITQHGSPYGRCANKTRALTVAELRGSGDLQEYLRHVTRGWSIFALYDGTYLGGEYGGVIKDGTPGGAFDLKTTFCIMTTRNTGQPATDHYYSNVTATRLLSSTNSRLCAVFVRSGQPVIGACTSPYDGKYWSMYSRLRKMLYLIYVAGISVRVHVSKEEQYYDYEDATFETYALTGISICNPGSSLC
chain 2: DVPYVLVKTNMVVTSVAMKPYEVTPTRMLVCGIAAKLGAAASSPDAHVPFCFGKDLKRPGSSPMEVMLRAVFMQQRPLRMFLGPKQLTFEGKPALELIRMVECSGKQDCP
Turning to B3, the binding result in assay [1] and in assay [2] was “binds” throughout.
